# In the supplement of paper PMC10567573:
# B1: TRIM39 (parent)
# chain: YPCVLATEGFTSGRHYWEVEVGDK
# B2: TRIM15 (parent)
# chain: LLARLRELEQQIWKERDEYITKVS
# Variants of: B1
# Test: protein stability index of a GFP-peptide fusion (GPS, HEK-293T) (PSI 1-6); higher = more stable
# Settings: c terminus: a fixed tail appended
# 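Note: lentivirally expressed fusions sorted by FACS into six bins by GFP to DsRed ratio, PSI derived from sequencing read proportions per bin multiplied by bin number.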
row,Variant,protein stability index
1,E20W,2.16
2,E20N,2.06
3,E20F,1.93
4,E20R,3.35
5,E20D,1.98
6,E20H,1.58
7,E20V,2.31
8,E20A,2.14
9,E20Y,1.96
10,E20K,2.4
11,E20C,2.73
12,E20T,2
13,E20I,1.96
14,E20G,3.06
15,E20L,2.32
16,E20M,1.59
17,E20P,1.57
18,E20Q,1.51
19,G22N,1.91
20,G22Q,2.38
21,G22C,1.66
22,G22L,1.81

row,Variant,protein stability index
1,G22S,2.19
2,G22T,1.76
3,G22D,1.92
4,G22V,1.82
5,G22H,1.95
6,G22I,1.67
7,G22R,1.75
8,G22F,1.53
9,G22Y,1.98
10,G22W,2.37
11,G22P,1.85
12,G22A,2.05
13,G22M,1.58
14,G22E,1.88
15,G22K,2.5
16,V21G,1.84
17,V21Y,2.14
18,V21M,1.9
19,V21R,2.05
20,V21H,1.86
21,V21Q,1.87
22,V21A,2.51

row,Variant,protein stability index
1,V21F,1.95
2,V21S,1.88
3,V21T,1.6
4,V21K,2.15
5,V21L,1.57
6,V21P,1.43
7,V21W,1.92
8,V21E,1.77
9,V21D,2.2
10,V21I,2.24
11,V21N,2.03
12,D23Y,1.91
13,D23H,2.98
14,D23I,1.76
15,D23P,1.43
16,D23G,1.82
17,D23S,1.76
18,D23F,1.58
19,D23N,3
20,D23M,1.57
21,D23R,1.45
22,D23A,1.79

row,Variant,protein stability index
1,D23V,1.65
2,D23L,2.51
3,D23E,1.85
4,D23Q,2.44
5,D23T,2.32
6,D23K,1.02
7,D23C,1.71
8,V19H,2.85
9,V19L,2.35
10,V19T,1.41
11,V19P,2.13
12,V19I,2.19
13,V19Q,2.86
14,V19C,2.18
15,V19S,1.93
16,V19M,2.63
17,V19N,2.54
18,V19D,3.18
19,V19R,2.4
20,V19W,2.21
21,V19K,2.98
22,V19Y,2.64

row,Variant,protein stability index
1,V19F,2.21
2,V19E,2.59
3,V19G,2.6
4,K24N,2.1
5,K24M,1.95
6,K24P,2.16
7,K24L,2.05
8,K24A,1.28
9,K24F,2.23
10,K24Q,1.7
11,K24D,1.07
12,K24E,2.66
13,K24T,2.36
14,K24R,1.75
15,K24Y,2.5
16,K24C,2.21
17,K24H,1.57
18,K24I,2.65
19,K24V,1.96
20,K24S,1.87
21,K24W,1.96
22,K24G,1.92

# Variants of: B2
# Test: as above
# Settings: c terminus: a fixed tail appended
row,Variant,protein stability index
1,T21W,2.63
2,Q10R,2.02
3,Q10P,1.4
4,Q10V,2.31
5,I12D,2.75
6,I12A,1.88
7,I12F,2.15
8,I12N,1.24
9,I12Q,2.34
10,I12H,1.8
11,E18M,2.33
12,W13H,1.37
13,W13F,2.83
14,S24P,1.82
15,S24N,1.52
16,S24Y,2.94
17,S24E,1.38
18,K14H,1.67
19,E15F,2.15

row,Variant,protein stability index
1,E15A,1.28
2,E15R,1.05
3,I20A,1.3
4,I20D,2.11
5,I20Y,3.1
6,I20K,2.1
7,L2P,3.13
8,L2A,2.12
9,L2D,2.55
10,L1M,1.03
11,L1R,1.87
12,L1H,2.19
13,Q11E,1.01
14,Q11Y,1.88
15,Q11G,1.41
16,K22A,2.38
17,K22C,1.94
18,K22P,1.23
19,R6C,1.8

row,Variant,protein stability index
1,A3F,2.9
2,A3Q,1.9
3,V23I,1.86
4,V23F,1.69
5,V23Y,2.4
6,V23P,1.26
7,R4F,1.73
8,L5I,2.98
9,L5A,1.91
10,L5H,2.72
11,L5T,2.44
12,L5W,1.34
13,L8I,2.51
14,L8A,1.14
15,E7R,1.07
16,E7D,1.6
17,E7I,1.03
18,R16K,1.92
19,R16C,2
